The values that follow come from PMC3762817, “Therapeutic Targeting of Tumor Growth and Angiogenesis with a Novel Anti-S100A4 Monoclonal Antibody” (PLoS ONE, 2013).

This test concerns the target T1, human recombinant RAGE-Fc Chimera (human, UniProt Q15109 23-342).
T1 construct: RAGE (receptor for advanced glycation end products), human; also called RAGE receptor; immobilized RAGE; source: bought: R&D Systems
Put plainly: SPR; Biacore T100; about 1,000 RU of RAGE-Fc immobilised on a CM5 chip by amine coupling; S100A4 0.625-5 µM passed over at 15 µL/min, 60 s contact time; regeneration with 50 mM NaOH. As to conditions: both partners purified.

T1 sequence (Q15109 23-342, change not shown): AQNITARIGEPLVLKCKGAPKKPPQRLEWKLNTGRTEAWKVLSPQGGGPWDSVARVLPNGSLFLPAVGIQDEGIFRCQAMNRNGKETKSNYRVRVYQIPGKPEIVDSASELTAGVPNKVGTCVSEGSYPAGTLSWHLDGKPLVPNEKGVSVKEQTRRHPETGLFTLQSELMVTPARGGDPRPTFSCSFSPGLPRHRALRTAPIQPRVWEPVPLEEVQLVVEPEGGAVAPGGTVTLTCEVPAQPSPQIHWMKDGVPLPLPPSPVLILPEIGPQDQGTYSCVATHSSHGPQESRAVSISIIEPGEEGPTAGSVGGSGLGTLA

B1: human recombinant S100A4 (natural protein)
chain: not shown
notes: S100A4, human; The His tag is inferred, and its removal is not mentioned; also called S100A4 fusion protein
On to B1, for which the binding result is recorded as “binds”.
